This passage reports Kd results from patent US20180327499A1 (published 2018).

Test [1] has as its target T1, NKG2D on HEK-293T cells co-transfected with NKG2D and DAP10 (UniProt P26718 1-216).
T1 chain: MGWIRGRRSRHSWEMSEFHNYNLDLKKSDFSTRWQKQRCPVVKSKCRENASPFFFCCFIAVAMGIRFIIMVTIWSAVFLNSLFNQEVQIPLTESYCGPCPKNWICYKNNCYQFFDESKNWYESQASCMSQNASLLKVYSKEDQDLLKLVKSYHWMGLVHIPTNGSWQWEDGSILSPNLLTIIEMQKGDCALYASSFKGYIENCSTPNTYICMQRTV
Description: flow cytometry; table printed under the HEK-293 plot; legend values suggest ELISA. A general note: A flow cytometer gives signals particle by particle.

Test [2] has as its target T2, recombinant human NKG2D/Fc chimera (R&D Systems) (human, UniProt P26718 78-216).
T2 chain: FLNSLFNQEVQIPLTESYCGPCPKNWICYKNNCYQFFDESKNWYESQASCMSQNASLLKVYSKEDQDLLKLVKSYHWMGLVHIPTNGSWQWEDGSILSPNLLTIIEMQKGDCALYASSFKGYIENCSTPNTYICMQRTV
Nature of the test: ELISA; table printed under the ELISA plot; legend values suggest HEK-293 cells. For orientation: ELISA stands for enzyme-linked immunosorbent assay.

Test [3] has as its target bsfAb ET1F8. Description: flow cytometry.
Test [4] deals with bsfAb ET2F9. Nature of the test: flow cytometry.
Test [5] concerns the target sdAb c7b. Nature of the test: ELISA; table printed under the ELISA plot; legend values suggest HEK-293 cells.

B1: sdAb ET2F9 (VHH)
VHH: QVQLVQSGGGLVQPGGSLRLSCAASGFTFDDYAMSWVRQAPGKGLEWVSAISWSGRTTYYAESMKGRFTTSRDNAKNTLYLQMNSLKPEDTALYYCARGDVAIRGNLDAWGQGTQVTVSS
Take B1: the Kd in test [1] is 41.1 nM; in test [2], 1710 nM.

B2: transfected HEK-293 (receptor)
chain: T1 chain
Consider B2, for which the Kd in test [3] was determined as 32.5 nM; in test [4], 33.2 nM.

B3: Fc-NKG2D (Fc fusion)
chain: T2 chain
For the molecule B3, the Kd in test [5] came out at 6.07 nM.

Usually Kd stands for the free concentration of one partner at which half of the binding sites on the other are occupied at equilibrium, for simple one-to-one binding.
